# Molecular target: PPARα (UniProt P23204)
# Experiment: Flag-JMJD3 co-IP, PPARα immunoblot
# Details: reference: wild type, FGF21-treated; sites T1044
substance,measurement,value
"JMJD3 (KDM6B) (from UniProt Q5NCY0) T1044A, FGF21-treated",binding against the reference,weaker

# From publication PMC7010817
